# Test results reported in patent US20160031986A1.
# Substitutions are numbered along the chain they refer to.
# B1: 14G1 rat monoclonal antibody (antibody, V domains shown)
# VH: EVQLQQSGAELAKPGSSVKISCKASGYTFTNYDISWIKQTNGQGLEYLGYINTGSGGIYSNEKFKGKATLTVDKSSNTAFMQLSSLTPEDTAVYYCVREGNNFDHWGQGVKVTVSS
# VL: DTVMTQSPASMSTSVGERVTVNCKASQSVGTIVAWFQQKPGQSPKRLIYLATYRHTGVPDRFIGSGFGRDFTLTISNVEAEDLAVYYCLQYGSRPFTFGAGTKLEIKR
# B2: 38H12 rat monoclonal antibody (antibody, V domains shown)
# VH: EVQLVESGGGLVQPGRSLKLSCAASGFTFSNYGMYWIRQAPTKGLQWVAFISHGGGITYYRDSVKGRFTISRDNAKSTLYLQMDSLRSEDTATYHCAALNWELGIDYWGQGVMVTVSS
# VL: DIQMTQSPASLSASLGETISIECRASEDIYSNLAWYQKKSGKSPQLLIYAANRLQDGVPSRFSGSGSGTQYSLKISGMQPEDEGDYFCLQGSKFPLTFGSGTKLEIKR
# B3: h1A11.G3 (antibody, V domains shown)
# VH: EVQLVESGGGLVQPGGSLRLSCAASGFTFRYFPMSWVRQAPGKGLEWVASISGSDGWASYRDSVKGRFTISRDNAKNSLYLQMNSLRAEDTAVYYCARGYYNSPFAYWGQGTLVTVSS
# VL: DIQMTQSPSSLSASVGDRVTITCRASQEIYRNLAWYQQKPGKSPKLLIFDTSVLADGVPSRFSGSGSGTDSTLTISSLQPEDFATYYCQQYTYYPPTFGQGTKLEIK
# B4: h1A11.F5 (antibody, V domains shown)
# VH: B3 VH with Y31H, S35A, S50T, G53S, G56A, A58P
# VL: B3 VL
# B5: h1A11.A6 (antibody, V domains shown)
# VH: B3 VH with Y31H, S35A, S50T, G53S, G56A, A58P, A97S
# VL: B3 VL with Q27E, E28D, R31S, S43A, F49Y, S52N, V53N, S71F, T92N, Y93N
# B6: h1A11.H2 (antibody, V domains shown)
# VH: B3 VH with R30G, Y31N, G53S, G56S, S59T, Y60I, R61G, Y107F
# VL: B3 VL
# B7: h1A11.E12 (antibody, V domains shown)
# VH: B3 VH with S35A, S50T, G56E, A58P, S59N, Y107F
# VL: B3 VL
# B8: h1A11.A8 (antibody, V domains shown)
# VH: B3 VH with R30G, Y31N, G53S, G56S, S59T, Y60I, R61G, A97S
# VL: B3 VL with Q27E, E28D, R31S, S43A, F49Y, S52N, V53N, S71F, T92N, Y93N
# B9: h1A11.A11 (antibody, V domains shown)
# VH: B3 VH with Y31H, S35A, S50T, G53S, G56D, A58P, S59N, N77S, A97S
# VL: B3 VL with Q27E, E28D, R31S, S43A, F49Y, S52N, V53N, S71F, T92N, Y93N
# B10: h1A11.C6 (antibody, V domains shown)
# VH: B3 VH with Y31N, S35A, S50T, G53S, A58P, S59T, N77S, A97S
# VL: B3 VL with Q27E, E28D, R31S, S43A, F49Y, S52N, V53N, S71F, T92N, Y93N
# B11: 32C7 rat monoclonal antibody (antibody, V domains shown)
# VH: EVQLVESGGGLVQPGRSLKLSCLASGFPFSSVWMTWIRQAPGKGLEWIATITNSGASTYYSASVKGRFTISRDNVKSTLYLQMTSLGSEDTATYYCTRVGTSFDYWGQGVMVTVSS
# VL: DIQMTQSPASLSASLGETVTIECRASDDIYNGLAWFQQKPGKSPQLLIYDANTLHTGVPSRFSGSGSGTQFSLKINSLQSEDVASYFCQQFYDYPPYTFGAGTKLELKR
# B12: 37D10 rat monoclonal antibody (antibody, V domains shown)
# VH: AVQLVESGGGLVQPKESLKISCAASGFTFSNAAMYWVRLAPGKGLEWVARIRTKPNNYATYYAESVKGRFTISRDDSKSMVYVQMDNLKTEDTAMYYCTAAPWRDSYAHVYWGQGVMVTVSS
# VL: DIQMTQSPPVLSASVGDRVTLSCKASQNIHKNLDWYQQKHGDAPKLLIYYTDHLQTGVPSRFSGSGSATDYTLTISSLQPEDVATYYCYQYNGGPFTFGSGTKLEIKR
# B13: 1A11 rat monoclonal antibody (antibody, V domains shown)
# VH: EVQLVESGGGLVQPGRSMKLSCAASGFTFRNFPMAWVRQAPTRGLEWVATISSSDGTTYYRDSVKGRFTISRDNAKSTLYLQVNSLRSEDTATYYCSRGYYNSPFAYWGQGTLVTVSS
# VL: DIQMTQSPASLSASLGETVTIECRASEDIYSNLAWYQQKPGNSPQLLIFDTNNLADGVPSRFSGSGSGTQSSLKINSLQSEDVASYFCQQYNNYPPTFGGGTKLELKR
# B14: 15D6 rat monoclonal antibody (antibody, V domains shown)
# VH: EVQLQQSGPELAKPGSSVKISCKASGYTFTSSYISWIKQTTGQGLEYIGYINTGSGGTDYNEKFKDKATLTVDKSSRTVFMQLSSLTPGDSAVYYCAKSILLGSTYYLDYWGQGVMVTVSS
# VL: DTVLTQSPALAVSLGQRVTISCKASRSLSSPMYSYIYWYQQKLGQQPRLLIYRASTLASGVPARFSGSGSGTDFTLNIDPVEADDIATYFCQQSWSDPFTFGSGTKLEIKR
# B15: 14A11 rat monoclonal antibody (antibody, V domains shown)
# VH: B14 VH with S31N, I48V, T58A, D66G, V79A, Y106C, L108F, M116L
# VL: B14 VL with D1N, L28V, L43P, R48K
# B16: h1A11.2 (antibody, V domains shown)
# VH: B3 VH with R30S, Y31N, S35A, S50T, G53S, W57T, A58T, S59Y
# VL: DIQMTQSPSSLSASVGDRVTITCRASEDIYSNLAWYQQKPGKSPKLLIFDTNNLADGVPSRFSGSGSGTDSTLTISSLQPEDFATYFCQQYNNYPPTFGQGTKLEIKR
# B17: h1A11.3 (antibody, V domains shown)
# VH: B3 VH with R30S, Y31N, S35A, S50T, G53S, W57T, A58T, S59Y
# VL: B16 VL with S43A, S71F, F87Y
# B18: h1A11.12 (antibody, V domains shown)
# VH: B3 VH with R30S, Y31N, S35A, S50T, G53S, W57T, A58T, S59Y, A97S
# VL: EIVMTQSPATLSVSPGERATLSCRASEDIYSNLAWYQQKPGQSPRLLIFDTNNLADGVPARFSGSGSGTESTLTISSLQSEDFAVYFCQQYNNYPPTFGQGTKLEIKR
# B19: h1A11.16 (antibody, V domains shown)
# VH: B13 VH with R16G, M18L, K19R, R30S, T42G, R43K, A75S, V83M, S88A, T93V
# VL: B18 VL
# B20: h1A11.8 (antibody, V domains shown)
# VH: B3 VH with R30S, Y31N, S35A, S50T, G53S, W57T, A58T, S59Y, N77S, A97S
# VL: B18 VL
# B21: h1A11.13 (antibody, V domains shown)
# VH: B13 VH with R16G, M18L, K19R, R30S, T42G, R43K, A75S, V83M, S88A, T93V
# VL: B16 VL with S43A, F49Y, S71F, F87Y
# B22: h1A11.4 (antibody, V domains shown)
# VH: B3 VH with R30S, Y31N, S35A, S50T, G53S, W57T, A58T, S59Y
# VL: B18 VL
# B23: h1A11.5 (antibody, V domains shown)
# VH: B3 VH with R30S, Y31N, S35A, S50T, G53S, W57T, A58T, S59Y, N77S, A97S
# VL: B16 VL with S43A, F49Y, S71F, F87Y
# B24: h1A11.14 (antibody, V domains shown)
# VH: B13 VH with R16G, M18L, K19R, R30S, T42G, R43K, A75S, V83M, S88A, T93V
# VL: B16 VL
# B25: h1A11.7 (antibody, V domains shown)
# VH: B3 VH with R30S, Y31N, S35A, S50T, G53S, W57T, A58T, S59Y, N77S, A97S
# VL: B16 VL with S43A, S71F, F87Y
# B26: h1A11.15 (antibody, V domains shown)
# VH: B13 VH with R16G, M18L, K19R, R30S, T42G, R43K, A75S, V83M, S88A, T93V
# VL: B16 VL with S43A, S71F, F87Y
# B27: h1A11.10 (antibody, V domains shown)
# VH: B3 VH with R30S, Y31N, S35A, S50T, G53S, W57T, A58T, S59Y, A97S
# VL: B16 VL
# B28: h1A11.11 (antibody, V domains shown)
# VH: B3 VH with R30S, Y31N, S35A, S50T, G53S, W57T, A58T, S59Y, A97S
# VL: B16 VL with S43A, S71F, F87Y
# B29: h1A11.9 (antibody, V domains shown)
# VH: B3 VH with R30S, Y31N, S35A, S50T, G53S, W57T, A58T, S59Y, A97S
# VL: B16 VL with S43A, F49Y, S71F, F87Y
# B30: h1A11.6 (antibody, V domains shown)
# VH: B3 VH with R30S, Y31N, S35A, S50T, G53S, W57T, A58T, S59Y, N77S, A97S
# VL: B16 VL
# B31: 1A11 chimeric antibody (antibody, V domains shown)
# VH: B13 VH
# VL: B13 VL
# Biological target: cynomolgus monkey DLL4 extracellular domain (cynomolgus monkey)
# Assay: Biacore SPR
Binder,Kd [nM],koff [s⁻¹],kon [M⁻¹ s⁻¹]
B1,10.5,0.00041,39000
B2,0.4,9.8e-05,260000
B3,,1.73e-05,99000
B4,,2e-05,118000
B5,,2.1e-05,171000
B6,,4.6e-05,131000
B7,,3.84e-05,137000
B8,,2.4e-05,160000
B9,,3.35e-05,170000
B10,,3.12e-05,171000
B11,0.03,6.3e-06,220000
B12,< 617,,40000
B13,8.1,0.00093,110000
B14,14.9,0.00083,56000
B15,11.6,0.0012,110000

# Biological target: cynomolgus monkey DLL4 extracellular domain (cynomolgus monkey)
# Assay: binding ELISA
row,Binder,EC50 [nM]
1,B16,0.13
2,B17,0.16
3,B18,0.16
4,B19,0.12
5,B20,0.17
6,B21,0.16
7,B22,0.17
8,B23,0.16
9,B24,0.14
10,B25,0.14
11,B26,0.13
12,B27,0.15
13,B28,0.15
14,B29,0.15
15,B30,0.13
16,B31,0.33

# Biological target: cynomolgus monkey DLL4 extracellular domain (cynomolgus monkey)
# Assay: Biacore SPR; head says nM, kd/ka gives M
row,Binder,Kd [nM]
1,B3,0.17
2,B4,0.17
3,B5,0.12
4,B6,0.35
5,B7,0.28
6,B8,0.15
7,B9,0.2
8,B10,0.18
